Data reported in the supplement of paper PMC10065799, “High-throughput profiling of sequence recognition by tyrosine kinases and SH2 domains using bacterial peptide display” (eLife, 2023).

Columns and labels:
[1] = tested on: AncSZ; assay: phosphorylation enrichment, bacterial display (enrichment ratio); higher = better substrate or ligand; peptides without Tyr show the background
[2] = target: EPHB1 (UniProt P54762); assay: as above
[3] = target: EPHB2 (UniProt P29323); assay: as above
[4] = target: FGFR1 (UniProt P11362); assay: as above
[5] = target: FGFR3 (UniProt P22607); assay: as above
[6] = tested on: Fer (mouse); assay: as above
[7] = target: Fes (UniProt P07332); assay: as above
[8] = target: Fyn (UniProt P06241); assay: as above
[9] = target: Hck (UniProt P08631); assay: as above
[10] = target: Jak2 (UniProt O60674); assay: as above
[11] = target: MERTK (UniProt Q12866); assay: as above
[12] = tested on: c-Abl (mouse); assay: as above
[13] = tested on: c-Src; assay: as above
[14] = target: Grb2 SH2 (UniProt P62993); assay: SH2 binding enrichment of the phosphorylated peptide, bacterial display (enrichment ratio); higher = better substrate or ligand; peptides without Tyr show the background
[15] = target: SHP2-C SH2; assay: as above
[16] = target: c-Src SH2; assay: as above
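Throughout, for SH2 binding enrichment of the phosphorylated peptide, bacterial display: peptide library displayed on the E. coli surface as eCPX fusions, selected cells deep-sequenced, score is each peptide's frequency after selection divided by its frequency in the input.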
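Throughout, for phosphorylation enrichment, bacterial display: 11-residue human phosphosite peptides and single-mutation variants displayed on the E. coli surface, counted by deep sequencing, each peptide's frequency after selection divided by its frequency in the unselected input library; frequency after pTyr selection over input frequency; kinase dosed for 20-30% of maximal phosphorylation in three min.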

Chain of Hck (P08631 whole entry, looked up): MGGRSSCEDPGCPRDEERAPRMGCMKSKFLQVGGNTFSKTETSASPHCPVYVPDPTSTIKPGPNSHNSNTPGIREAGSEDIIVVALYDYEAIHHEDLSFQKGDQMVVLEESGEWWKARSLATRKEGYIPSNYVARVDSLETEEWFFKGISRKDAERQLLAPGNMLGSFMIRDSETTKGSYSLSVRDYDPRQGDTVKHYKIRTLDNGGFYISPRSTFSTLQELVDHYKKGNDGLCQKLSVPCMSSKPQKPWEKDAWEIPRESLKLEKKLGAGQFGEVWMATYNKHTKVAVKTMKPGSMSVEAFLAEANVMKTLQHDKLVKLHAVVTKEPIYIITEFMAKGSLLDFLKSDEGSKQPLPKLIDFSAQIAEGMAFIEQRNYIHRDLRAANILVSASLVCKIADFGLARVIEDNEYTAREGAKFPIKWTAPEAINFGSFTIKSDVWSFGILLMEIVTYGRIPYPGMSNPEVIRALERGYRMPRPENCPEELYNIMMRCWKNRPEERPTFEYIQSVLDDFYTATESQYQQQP
Chain of FGFR3 (P22607 whole entry, looked up): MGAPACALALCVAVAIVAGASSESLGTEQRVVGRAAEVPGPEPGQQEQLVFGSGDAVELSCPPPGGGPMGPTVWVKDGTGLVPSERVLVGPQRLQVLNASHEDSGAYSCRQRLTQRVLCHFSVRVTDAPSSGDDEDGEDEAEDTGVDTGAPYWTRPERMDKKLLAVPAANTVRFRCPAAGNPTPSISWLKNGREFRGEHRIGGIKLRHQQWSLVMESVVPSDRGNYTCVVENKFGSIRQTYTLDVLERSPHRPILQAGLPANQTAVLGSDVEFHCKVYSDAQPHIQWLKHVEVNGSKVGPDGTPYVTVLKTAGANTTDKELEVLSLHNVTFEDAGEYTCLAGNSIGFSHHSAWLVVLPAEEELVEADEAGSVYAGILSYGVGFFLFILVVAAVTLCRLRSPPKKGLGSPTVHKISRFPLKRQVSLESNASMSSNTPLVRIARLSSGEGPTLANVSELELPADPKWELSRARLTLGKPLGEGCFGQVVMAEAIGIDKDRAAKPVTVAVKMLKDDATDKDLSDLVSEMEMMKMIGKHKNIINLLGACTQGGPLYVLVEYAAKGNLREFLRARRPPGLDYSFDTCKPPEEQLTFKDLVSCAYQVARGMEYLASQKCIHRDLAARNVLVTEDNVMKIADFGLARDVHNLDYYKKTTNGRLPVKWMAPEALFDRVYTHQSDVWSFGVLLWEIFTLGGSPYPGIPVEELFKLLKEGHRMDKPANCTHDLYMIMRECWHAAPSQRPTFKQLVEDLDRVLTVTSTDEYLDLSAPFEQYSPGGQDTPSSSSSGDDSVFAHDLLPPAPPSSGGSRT
Chain of FGFR1 (P11362 whole entry, looked up): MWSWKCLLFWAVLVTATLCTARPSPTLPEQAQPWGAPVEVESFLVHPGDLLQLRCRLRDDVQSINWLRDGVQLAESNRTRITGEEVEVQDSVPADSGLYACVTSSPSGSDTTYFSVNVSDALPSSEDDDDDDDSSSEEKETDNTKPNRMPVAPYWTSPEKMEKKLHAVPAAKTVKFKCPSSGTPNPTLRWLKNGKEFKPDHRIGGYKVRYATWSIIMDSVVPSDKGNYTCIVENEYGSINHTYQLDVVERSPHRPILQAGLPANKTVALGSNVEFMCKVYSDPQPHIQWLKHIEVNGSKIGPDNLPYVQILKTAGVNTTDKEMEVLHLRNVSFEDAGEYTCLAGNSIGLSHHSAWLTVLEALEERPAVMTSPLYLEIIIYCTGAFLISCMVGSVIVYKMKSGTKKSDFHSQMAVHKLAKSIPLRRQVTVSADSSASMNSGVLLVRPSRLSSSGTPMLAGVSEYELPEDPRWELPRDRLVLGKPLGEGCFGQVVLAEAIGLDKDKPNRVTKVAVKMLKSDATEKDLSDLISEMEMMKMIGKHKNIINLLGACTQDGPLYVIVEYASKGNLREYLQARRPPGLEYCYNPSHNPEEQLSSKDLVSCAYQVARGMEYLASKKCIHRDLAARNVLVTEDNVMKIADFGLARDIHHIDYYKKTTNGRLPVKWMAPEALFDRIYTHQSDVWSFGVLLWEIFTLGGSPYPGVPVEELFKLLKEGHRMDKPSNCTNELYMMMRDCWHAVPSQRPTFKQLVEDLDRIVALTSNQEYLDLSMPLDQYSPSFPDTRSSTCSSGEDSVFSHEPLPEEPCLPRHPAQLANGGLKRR
Chain of MERTK (Q12866 whole entry, looked up): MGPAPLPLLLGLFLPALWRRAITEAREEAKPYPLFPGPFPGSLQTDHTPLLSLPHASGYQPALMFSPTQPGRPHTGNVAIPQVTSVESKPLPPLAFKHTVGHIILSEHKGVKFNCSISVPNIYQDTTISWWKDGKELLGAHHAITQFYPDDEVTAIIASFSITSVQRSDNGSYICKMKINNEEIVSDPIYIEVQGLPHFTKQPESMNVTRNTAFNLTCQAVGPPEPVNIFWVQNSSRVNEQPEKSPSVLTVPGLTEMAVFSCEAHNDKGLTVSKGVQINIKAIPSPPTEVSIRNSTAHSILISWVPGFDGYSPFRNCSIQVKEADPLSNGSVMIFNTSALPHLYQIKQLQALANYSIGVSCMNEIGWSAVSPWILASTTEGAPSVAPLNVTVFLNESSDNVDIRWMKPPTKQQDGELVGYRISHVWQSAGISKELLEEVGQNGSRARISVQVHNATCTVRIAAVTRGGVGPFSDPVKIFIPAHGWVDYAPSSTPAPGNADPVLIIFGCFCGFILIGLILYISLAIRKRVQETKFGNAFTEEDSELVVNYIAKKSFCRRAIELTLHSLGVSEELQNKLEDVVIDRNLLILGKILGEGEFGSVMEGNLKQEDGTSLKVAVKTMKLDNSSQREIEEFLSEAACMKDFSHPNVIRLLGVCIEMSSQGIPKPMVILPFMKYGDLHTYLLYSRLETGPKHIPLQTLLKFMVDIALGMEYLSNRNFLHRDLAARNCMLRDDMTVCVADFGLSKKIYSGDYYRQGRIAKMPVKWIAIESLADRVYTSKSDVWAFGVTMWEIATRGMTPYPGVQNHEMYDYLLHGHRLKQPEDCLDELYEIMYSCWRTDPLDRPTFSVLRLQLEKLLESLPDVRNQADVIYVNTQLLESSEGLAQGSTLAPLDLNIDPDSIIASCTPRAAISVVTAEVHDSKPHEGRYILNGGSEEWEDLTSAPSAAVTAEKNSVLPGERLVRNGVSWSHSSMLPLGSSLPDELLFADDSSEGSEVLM
Chain of EPHB2 (P29323 whole entry, looked up): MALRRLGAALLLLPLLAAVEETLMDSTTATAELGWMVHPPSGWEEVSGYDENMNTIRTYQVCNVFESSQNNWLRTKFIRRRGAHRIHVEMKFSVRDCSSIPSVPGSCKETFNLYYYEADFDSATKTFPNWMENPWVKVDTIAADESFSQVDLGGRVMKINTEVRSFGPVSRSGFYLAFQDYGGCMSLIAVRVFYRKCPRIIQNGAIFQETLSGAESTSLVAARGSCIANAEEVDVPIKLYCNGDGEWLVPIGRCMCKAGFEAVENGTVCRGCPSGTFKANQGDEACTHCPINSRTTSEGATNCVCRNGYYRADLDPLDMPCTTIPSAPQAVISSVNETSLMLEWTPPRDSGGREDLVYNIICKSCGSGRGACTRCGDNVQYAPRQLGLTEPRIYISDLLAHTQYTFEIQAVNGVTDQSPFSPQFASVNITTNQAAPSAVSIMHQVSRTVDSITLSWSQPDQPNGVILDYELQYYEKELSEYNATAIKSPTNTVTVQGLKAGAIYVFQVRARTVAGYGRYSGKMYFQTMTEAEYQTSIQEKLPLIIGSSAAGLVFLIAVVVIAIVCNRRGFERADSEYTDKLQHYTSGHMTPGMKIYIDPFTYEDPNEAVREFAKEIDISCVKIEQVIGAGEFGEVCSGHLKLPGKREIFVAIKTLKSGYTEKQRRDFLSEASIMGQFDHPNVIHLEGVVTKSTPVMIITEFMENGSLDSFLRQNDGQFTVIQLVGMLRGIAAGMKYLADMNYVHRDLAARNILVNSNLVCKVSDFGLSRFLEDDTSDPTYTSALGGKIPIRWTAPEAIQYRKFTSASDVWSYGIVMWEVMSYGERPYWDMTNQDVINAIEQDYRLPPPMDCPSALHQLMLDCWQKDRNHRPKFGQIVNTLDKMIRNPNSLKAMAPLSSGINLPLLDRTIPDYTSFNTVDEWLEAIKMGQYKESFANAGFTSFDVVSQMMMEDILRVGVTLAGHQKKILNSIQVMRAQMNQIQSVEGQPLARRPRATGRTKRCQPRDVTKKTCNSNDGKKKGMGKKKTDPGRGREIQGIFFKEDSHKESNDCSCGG
Chain of Fes (P07332 whole entry, looked up): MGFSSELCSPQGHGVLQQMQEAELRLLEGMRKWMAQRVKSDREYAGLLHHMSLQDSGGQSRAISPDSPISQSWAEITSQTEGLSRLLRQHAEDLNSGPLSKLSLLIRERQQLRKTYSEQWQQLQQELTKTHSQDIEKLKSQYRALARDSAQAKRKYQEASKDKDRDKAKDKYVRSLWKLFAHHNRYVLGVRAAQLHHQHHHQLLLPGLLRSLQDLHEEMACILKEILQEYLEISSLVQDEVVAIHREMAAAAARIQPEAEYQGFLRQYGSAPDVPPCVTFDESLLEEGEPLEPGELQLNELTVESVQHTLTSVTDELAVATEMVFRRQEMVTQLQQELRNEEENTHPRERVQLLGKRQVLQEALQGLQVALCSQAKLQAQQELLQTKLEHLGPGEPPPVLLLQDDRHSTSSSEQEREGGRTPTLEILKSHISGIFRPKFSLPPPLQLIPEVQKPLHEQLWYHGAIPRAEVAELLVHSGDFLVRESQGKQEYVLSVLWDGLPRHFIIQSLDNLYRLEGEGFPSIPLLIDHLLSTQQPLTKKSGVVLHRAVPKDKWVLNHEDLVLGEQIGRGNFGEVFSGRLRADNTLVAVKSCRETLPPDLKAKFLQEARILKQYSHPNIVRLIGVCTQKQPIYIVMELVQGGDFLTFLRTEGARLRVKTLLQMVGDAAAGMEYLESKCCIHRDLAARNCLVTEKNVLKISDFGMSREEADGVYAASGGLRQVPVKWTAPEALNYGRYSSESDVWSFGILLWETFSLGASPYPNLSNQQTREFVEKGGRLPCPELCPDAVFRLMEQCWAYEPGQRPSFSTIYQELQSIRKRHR

SH2 binding enrichment [14] | SH2 binding enrichment [15] | SH2 binding enrichment [16] | Sequence | phosphorylation enrichment [1] | phosphorylation enrichment [2] | phosphorylation enrichment [3] | phosphorylation enrichment [4] | phosphorylation enrichment [5] | phosphorylation enrichment [6] | phosphorylation enrichment [7] | phosphorylation enrichment [8] | phosphorylation enrichment [9] | phosphorylation enrichment [10] | phosphorylation enrichment [11] | phosphorylation enrichment [12] | phosphorylation enrichment [13]
0.951 | 0.537 | 0.437 | EVVGGYSVHNA [MLH1_Y183_R182G] | 0.528 | 0.306 | 0.314 | 0.339 | 0.599 | 0.372 | 0.729 | 0.324 | 0.44 | 0.504 | 0.369 | 0.643 | 0.336
0.851 | 1.11 | 3.68 | STASGYSDVTD [DTX2_Y425] | 0.721 | 0.448 | 0.464 | 0.497 | 0.487 | 0.398 | 0.84 | 0.447 | 0.449 | 0.661 | 0.355 | 0.61 | 0.358
0.867 | 0.662 | 1.49 | ALEQKYWALGQ [MAP1A_Y1555] | 0.768 | 0.53 | 0.492 | 0.674 | 0.665 | 0.436 | 0.735 | 1.39 | 0.875 | 0.886 | 1.3 | 0.537 | 1.82
0.941 | 0.85 | 0.529 | RRSQSYIPTSG [PLEKHA2_Y185] | 0.663 | 0.372 | 0.729 | 0.615 | 0.455 | 0.354 | 0.709 | 0.707 | 0.473 | 0.649 | 0.59 | 0.497 | 0.682
1.03 | 1.08 | 0.561 | DTNIAYWLHPR [POMT1_Y581] | 0.762 | 0.433 | 0.44 | 1.84 | 1.23 | 0.373 | 0.763 | 0.64 | 0.633 | 0.813 | 0.803 | 0.473 | 0.717

Further lines, the sequence ahead of its results:

Sequence | SH2 binding enrichment [14] | SH2 binding enrichment [15] | SH2 binding enrichment [16] | phosphorylation enrichment [1] | phosphorylation enrichment [2] | phosphorylation enrichment [3] | phosphorylation enrichment [4] | phosphorylation enrichment [5] | phosphorylation enrichment [6] | phosphorylation enrichment [7] | phosphorylation enrichment [8] | phosphorylation enrichment [9] | phosphorylation enrichment [10] | phosphorylation enrichment [11] | phosphorylation enrichment [12] | phosphorylation enrichment [13]
FIPSNYVAEDR [FRK_Y104_YF] | 0.82 | 0.868 | 0.579 | 0.74 | 0.386 | 0.443 | 0.412 | 0.502 | 0.427 | 0.657 | 0.394 | 0.411 | 0.564 | 0.399 | 0.431 | 0.42
LCHELYNTIRD [PBRM1_Y54_V49L] | 1.21 | 1.04 | 4 | 1.21 | 0.675 | 0.785 | 0.973 | 0.905 | 0.869 | 1.03 | 1 | 6.12 | 2.44 | 0.796 | 0.929 | 3.39
NFHRGYHLQVL [CD200R1L_Y138] | 0.963 | 0.827 | 0.54 | 0.755 | 0.483 | 0.475 | 0.453 | 0.606 | 0.478 | 0.835 | 0.5 | 0.375 | 0.54 | 0.351 | 0.787 | 0.353
TTGLIYIGSHD [AASDH_Y870] | 1.04 | 0.69 | 0.624 | 0.726 | 0.686 | 0.565 | 0.445 | 0.79 | 0.424 | 0.759 | 0.375 | 0.46 | 0.715 | 0.323 | 0.488 | 0.408
TGDFGYRTPGF [TNS2_Y668_A670T_YF] | 0.765 | 0.709 | 0.529 | 0.523 | 0.48 | 0.419 | 0.438 | 0.517 | 0.399 | 0.632 | 0.457 | 0.401 | 0.526 | 0.429 | 0.706 | 0.413
CITIHYNFMCN [TP53_Y234_T230I_YF] | 2.19 | 1.43 | 1.52 | 0.946 | 0.59 | 0.711 | 0.582 | 0.886 | 0.574 | 1.44 | 0.46 | 0.489 | 1.31 | 0.456 | 0.661 | 0.607
SNMPTYSGHFS [GRIN2A_Y1224_T1229S] | 0.898 | 0.643 | 0.491 | 0.594 | 0.585 | 0.784 | 0.433 | 0.45 | 1.04 | 0.581 | 1.7 | 1.48 | 0.662 | 1.15 | 0.684 | 2.61
LLILEYAKFGS [RET_Y806_V804L_YF] | 2.19 | 1.76 | 1.21 | 1.34 | 1.49 | 0.991 | 0.85 | 1.38 | 0.699 | 1.52 | 1.01 | 0.901 | 1.15 | 0.585 | 0.635 | 0.976
QHVPDYRQNGY [PCDHGA1_Y890_V894G] | 0.889 | 0.678 | 0.486 | 0.788 | 0.484 | 0.548 | 0.52 | 0.578 | 0.496 | 0.887 | 0.523 | 0.524 | 0.719 | 0.493 | 0.621 | 0.514
LIQRNYKLAAQ [ALPK2_Y1975] | 0.961 | 0.649 | 0.399 | 1.19 | 1.13 | 0.604 | 0.937 | 0.962 | 0.576 | 1.21 | 0.571 | 0.833 | 0.44 | 0.72 | 0.773 | 0.49
SERNNYSRVAN [CWC22_Y797] | 0.747 | 5.32 | 1.46 | 0.501 | 0.503 | 0.59 | 0.435 | 0.456 | 0.422 | 0.557 | 0.347 | 0.382 | 0.461 | 0.391 | 0.51 | 0.356
